T1: human Fas receptor (FasR) on the surface of HUVEC cells (human, UniProt P25445 26-335)
T1 construct: whole, on cells; also called hTNFRSM6; hTNFR6
T1 sequence (looked up): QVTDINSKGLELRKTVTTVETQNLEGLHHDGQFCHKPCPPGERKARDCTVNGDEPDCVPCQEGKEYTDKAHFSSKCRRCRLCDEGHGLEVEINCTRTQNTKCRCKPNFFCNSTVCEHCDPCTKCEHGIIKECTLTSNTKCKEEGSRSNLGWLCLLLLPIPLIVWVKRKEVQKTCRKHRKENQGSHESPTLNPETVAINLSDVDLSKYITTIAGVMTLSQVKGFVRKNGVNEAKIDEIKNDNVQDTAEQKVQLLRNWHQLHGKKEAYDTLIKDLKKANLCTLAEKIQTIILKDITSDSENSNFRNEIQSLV


Columns and labels:
[1] = target: PrP rigid loop peptide … (DSE3) (human)
[2] = target: T1, human Fas receptor (FasR) on the …; experiment: flow cytometry on mitomycin C-treated senescent HUVEC cells, antibody at 40 µg/ml

Row | Binder | Kd [1] [nM] | binding result [2]
1 | antibody c-120 (misfolded PrP rigid loop antibody) (antibody) heavy: QSVEESGGHLVTPGTPLTLTCTVSGIDLSTYAMGWVRQAPGKGLEWIGVITKSGNTYYASWAKGRFAISKTSTTVDLKITSPTTEDTATYFCGRYGIGVSYYDIWGPGTLVTVSSGQPKAPSVFPLAPCCGDTPSSTVTLGCLVKGYLPEPVTVTWNSGTLTNGVRTFPSVRQSSGLYSLSSVVSVTSSSQPVTCNVAHPATNTKVDKTVAPSTCSKPTCPPPELLGGPSVFIFPPKPKDTLMISRTPEVTCVVVDVSQDDPEVQFTWYINNEQVRTARPPLREQQFNSTIRVVSTLPIAHQDWLRGKEFKCKVHNKALPAPIEKTISKARGQPLEPKVYTMGPPREELSSRSVSLTCMINGFYPSDISVEWEKNGKAEDNYKTTPAVLDSDGSYFLYSKLSVPTSEWQRGDVFTCSVMHEALHNHYTQKSISRSPGK light: AQVLTQTPSPVSAAVGGTVTINCQSSQSLYNKNWLSWYQKKPGQPPKLLIYKASTLESGVSSRFKGSGSGTQFTLTISGVQCDDAATYYCQGEFSCSSADCTAFGGGTEVVVKGDPVAPTVLIFPPAADQVATGTVTIVCVANKYFPDVTVTWEVDGTTQTTGIENSKTPQNSADCTYNLSSTLTLTSTQYNSHKEYTCKVTQGTTSVVQSFNRGDC | 0.1 | 
2 | antibody AMF-3a-118 (misfolded FasR antibody) (antibody, V domains shown) VH: QSVEESGGRLVTPGTPLTLTCKASGFSLSDSRVSWVRQAPGKGLEWIGIVGIGWNIYHANWAKGRFTISKTSSTTVDLKITSPTVEDTATYFCARGLGGGTVIWGPGTLVTVSL VL: AQVLTQTPASVSAAVGGTVTISCQSSESVYKNNYLSWFQQKPGQPPKLLIYEASKLASGVSTRFKGSGSGTQFTLTISGVQCDDAATYYCLGEFSCYSGDCGTFGGGTAVVVKG |  | binds
